Experimental data from the supplement of paper PMC10598134.
± gives the standard deviation.

Test: collision cross section of modified peptide (TIMS, N2, iRT-aligned); higher = larger / more extended gas-phase ion
Outline: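 Synthetic peptide pools (~100 fmol/µL in 2% acetonitrile/0.1% formic acid, iRT standard spiked 1:40) were separated on a 120-min nanoflow C18 gradient at 60 °C. They were analysed on a timsTOF Pro/HT (dda-PASEF, nitrogen, ~2.4 mbar) and identified with MaxQuant. 1/K0 was calibrated with three reference ions and aligned run-wise to the median iRT peptide deviation. Collision cross section came from the Mason-Schamp equation, averaging 1–3 technical replicates of the most abundant feature per charge state.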

[1] = charge state: 2, modification: GlyGly (K)
[2] = charge state: 3, modification: GlyGly (K)
[3] = charge state: 3, modification: Formyl
[4] = charge state: 2, modification: Methyl (K)
[5] = charge state: 3, modification: Methyl (K)
[6] = charge state: 2, modification: hydroxyisobutyryl
[7] = charge state: 3, modification: hydroxyisobutyryl
[8] = charge state: 2, modification: Butyryl
[9] = charge state: 2, modification: Succinyl
[10] = charge state: 3, modification: Succinyl
[11] = charge state: 2, modification: Crotonyl

## IHVQSSSDSSDEPAEKR [_IHVQSSSDSSDEPAEK(GlyGly (K))R_]
[1]
  collision cross section: 469.51 Å²
[2]
  collision cross section: 539.73 ± 0.58 Å²

## IHNAENIQPGEQKYEYK [_IHNAENIQPGEQK(Formyl)YEYK_]
[3]
  collision cross section: 518.35 ± 1.3 Å²

## GPPPSYGGSSR [_GPPPSY(Phospho (Y))GGSSR_]
Charge state: 2, modification: Phospho (Y)
  collision cross section: 343.35 ± 0.65 Å²

## ASEALLKQLK [_ASEALLK(Methyl (K))QLK_]
[4]
  collision cross section: 369.33 ± 0.7 Å²
[5]
  collision cross section: 450.1 ± 3.1 Å²

## VETTVTSLKTK [_VETTVTSLK(hydroxyisobutyryl)TK_]
[6]
  collision cross section: 389.83 ± 0.81 Å²
[7]
  collision cross section: 450.94 ± 1.9 Å²

## YSSNLGNFNYEQRGAFR [_YSSNLGNFNYEQR(Citrullination (R))GAFR_]
Charge state: 3, modification: Citrullination (R)
  collision cross section: 530.01 Å²

## SPDEAYAIAKK [_SPDEAYAIAK(GlyGly (K))K_]
[1]
  collision cross section: 383.65 ± 0.88 Å²
[2]
  collision cross section: 448.77 ± 3 Å²

## LLFSNTAAQKLR [_LLFSNTAAQK(Butyryl)LR_]
[8]
  collision cross section: 405.4 ± 0.23 Å²
Charge state: 3, modification: Butyryl
  collision cross section: 483.12 ± 3.2 Å²

## IPPTYQIR [_IPPTY(Nitro (Y))QIR_]
Charge state: 2, modification: Nitro (Y)
  collision cross section: 343.35 ± 0.72 Å²

## DDSFLGKLGGTLAR [_DDSFLGK(Succinyl)LGGTLAR_]
[9]
  collision cross section: 412.99 ± 0.37 Å²
[10]
  collision cross section: 489.32 ± 3.3 Å²

## INNFSADIKDSK [_INNFSADIK(hydroxyisobutyryl)DSK_]
[6]
  collision cross section: 408.19 ± 0.53 Å²
[7]
  collision cross section: 466.44 ± 1.1 Å²

## LLEEEDSKLK [_LLEEEDSK(Propionyl)LK_]
Charge state: 2, modification: Propionyl
  collision cross section: 383.32 ± 0.94 Å²

## LGNDFHTNKR [_LGNDFHTNK(Formyl)R_]
Charge state: 2, modification: Formyl
  collision cross section: 366.48 ± 1.5 Å²
[3]
  collision cross section: 438.07 ± 2.4 Å²

## PSVGSQSNQAGQGKR [_PSVGSQSNQAGQGK(GlyGly (K))R_]
[1]
  collision cross section: 441.17 ± 1.6 Å²
[2]
  collision cross section: 461.66 ± 1.1 Å²

## FIHQQPQSSSPVYGSSAK [_FIHQQPQSSSPVYGS(HexNAc (ST))SAK_]
Charge state: 3, modification: HexNAc (ST)
  collision cross section: 528.58 ± 0.18 Å²

## DKALPLEAEVAPVK [_DK(GlyGly (K))ALPLEAEVAPVK_]
[1]
  collision cross section: 422.58 ± 0.97 Å²
[2]
  collision cross section: 511.69 ± 1.3 Å²

## LEQVEKELLR [_LEQVEK(Butyryl)ELLR_]
[8]
  collision cross section: 391.61 ± 1.3 Å²

## LEEVTGKLQVAR [_LEEVTGK(Gluratylation)LQVAR_]
Charge state: 2, modification: Glutarylation
  collision cross section: 400.05 ± 0.12 Å²
Charge state: 3, modification: Glutarylation
  collision cross section: 468.97 Å²

## AGQKLIDVNHYAK [_AGQK(Biotin)LIDVNHYAK_]
Charge state: 2, modification: Biotin
  collision cross section: 451.79 ± 0.62 Å²
Charge state: 3, modification: Biotin
  collision cross section: 517.92 ± 3.1 Å²

## GAEKTEVAEPR [_GAEK(Methyl (K))TEVAEPR_]
[4]
  collision cross section: 369.74 ± 0.22 Å²
[5]
  collision cross section: 441.71 ± 4.3 Å²

## TEVLSPNSKVESK [_TEVLSPNSK(Acetyl (K))VESK_]
Charge state: 2, modification: Acetyl (K)
  collision cross section: 411.3 ± 1.6 Å²
Charge state: 3, modification: Acetyl (K)
  collision cross section: 448.45 ± 2.4 Å²

## SDSGKPYYYNSQTK [_SDSGK(Crotonyl)PYYYNSQTK_]
[11]
  collision cross section: 425.72 ± 0.29 Å²

## GGPGSTLSFVGKR [_GGPGSTLSFVGK(Succinyl)R_]
[9]
  collision cross section: 387.5 ± 0.76 Å²
[10]
  collision cross section: 434.26 Å²

## TTGFYSGFSEVAEKR [_TTGFYSGFSEVAEK(Crotonyl)R_]
[11]
  collision cross section: 441.38 ± 0.77 Å²

## GDNGSVGEPGPK [_GDNGSVGEP(Hydroxyproline)GPK_]
Charge state: 2, modification: Hydroxyproline
  collision cross section: 344.87 ± 1.1 Å²

## VGIDTPDIDIHGPEGKLK [_VGIDTPDIDIHGPEGK(Succinyl)LK_]
[9]
  collision cross section: 494.78 Å²
[10]
  collision cross section: 540.29 ± 1.1 Å²

## FGRGTGLTQPSQR [_FGR(Methyl (R))GTGLTQPSQR_]
Charge state: 3, modification: Methyl (R)
  collision cross section: 470.4 ± 2.6 Å²

## LDHLAEKFR [_LDHLAEK(Methyl (K))FR_]
[4]
  collision cross section: 368.51 ± 0.5 Å²
[5]
  collision cross section: 450.7 ± 4.8 Å²

## SEASSEFAKK [_SEASSEFAK(Crotonyl)K_]
[11]
  collision cross section: 355.23 ± 0.57 Å²

## TVSKVDDFLANEAK [_TVSK(GlyGly (K))VDDFLANEAK_]
[1]
  collision cross section: 429.63 ± 1.4 Å²
[2]
  collision cross section: 494.01 ± 1.9 Å²

## KFGVLSDNFK [_K(Butyryl)FGVLSDNFK_]
[8]
  collision cross section: 377.44 ± 0.84 Å²

## DTGEKLTVAENEAETK [_DTGEK(Dimethyl (K))LTVAENEAETK_]
Charge state: 2, modification: Dimethyl (K)
  collision cross section: 442.93 ± 0.72 Å²
Charge state: 3, modification: Dimethyl (K)
  collision cross section: 481.58 ± 2.1 Å²
